Laboratory results from article PMC7054389, “Genome-Wide Analysis of the Glucose-6-Phosphate Dehydrogenase Family in Soybean and Functional Identification of GmG6PDH2 Involvement in Salt Stress” (Frontiers in Plant Science, 2020).

Substrate: NC(=O)c1ccc[n+]([C@@H]2O[C@H](COP(=O)(O)OP(=O)(O)OC[C@H]3O[C@@H](n4cnc5c(N)ncnc54)[C@H](OP(=O)(O)O)[C@@H]3O)[C@@H](O)[C@H]2O)c1
Test: NADP+ reduction, Eadie-Hofstee plot, crude E. coli extract
Type: biochemical, Glycine max
Conditions: co-substrate G6P, assay as for plant extracts: 50 mM Hepes-Tris pH 7.8, 3.3 mM MgCl2

B1: GmG6PDH2 (Glycine max) (protein)
chain: MGTSEWHIERRSSFGTESPLAREAGNVPETGSLSIVVLGASGDLAKKKTFPALFHLYRQGFLPADEVHIFGYARTKISDDELRNRLRGYLVPNKGASPQLLEDVEKFLQLIKYVSGSYDSEDGFRLLDKEISEHEYLKKSVEGLSRRLFYLALPPSVYPSVCKMIKTCCMNKSDLGGWTRVVVEKPFGKDLESAEELSTEIGKLFEEPQIYRIDHYLGKELVQNLLVLRFANRFFLPLWNRDNIDNVQIVFREDFGTDGRGGYFDQYGIIRDIIQNHLLQVLCLVAMEKPVSLRPEHIRDEKVKVLESVLPIRDDEVVLGQYEGYKDDPTVPDKSNTPTFATVILRIHNERWEGVPFILKAGKALNSRKAEIRVQFKDVPGDIFKCKKQGRNEFVIRLQPLEAMYMKLTVKQPGLEMSTVQSELDLSYGQRYQGVTIPEAYERLILDTIKGDQQHFVRRDELKASWQIFTPLLHRIDEGEFKPLPYKPGSRGPAEADQLLEKAGYVQTHGYIWIPPTL
notes: full-length CDS in pET32a(+), His-tagged, E. coli Rosetta; crude lysate supernatant, not purified
In the case of B1, the Km is reported as 33 µM.
